B1: hNoggin (protein)
chain: QHYLHIRPAPSDNLPLVDLIEHPDPIFDPKEKDLNETLLRSLLGGHYDPGFMATSPPEDRPGGGGGAAGGAEDLAELDQLLRQRPSGAMPSEIKGLEFSEGLAQGKKQRLSKKLRRKLQMWLWSQTFCPVLYAWNDLGSRFWPRYVKVGSCFSKRSCSVPEGMVCKPSKSVHLTVLRWRCQRRGGQRCGWIPIQYPIISECKCSC
B2: C8E7: E7 linked to C8, hetero-dimer VHH bihead (protein)
chain: EVQLVESGGGLVQAGGSLRLSCAASGRTFRINDMGWYRQAPGKSRDMVARITSGGNTNYADSVKGRFTISRDNAKNTVYLQMNSLKPEDTAVYYCNADGLRFDSTRYRPFDSWGQGTQVTVSSGGGGSGGGGSEVQLVESGGGLVQAGGSLRLSCAASGSIRGFVAMAWYRQAPGKQREWVATVTNGGTLYGDSVKGRFTGSRDNAKNTVYLQMNSLKPEDTAVYYCALRQIGASGYDYWGQGTQVTVSS

Legend:
BMP12 = experiment: BMP activity luciferase reporter assay (BRE-luciferase, ID1 promoter) in C2C12 cells; type: cell-based, mouse; conditions: 50 ng/ml hBMP12, 16 h; 500 ng/ml
Procedure: C2C12 cells were plated in 96-well plates when they reached confluency, cells were treated in triplicate with 25 ng/ml of BMP9, 50 ng/ml of BMP10 or 50 ng/ml of BMP12 (all from R&D Systems), for 16 hours. VHHs or Noggin were added at a concentration of 5 ug/ml. C2C12 cells or HEK293 were plated on 12-well plates and starved for 5 hours, before stimulation with 2 ng/ml of TGF-β (R&D Systems) or 100 ng/ml Activin-A (R&D Systems), respectively. VHHs at the indicated concentrations were added at the same time. After 1 hour cells were lysed, and protein isolation and SDS-PAGE separation were performed as described previously. For protein detection the following antibodies were used: antiphospho-SMAD2 at 1:1000 (Cell Signaling).
C2C12 cells were cultured in 96-well plates at 5×10^3 cells/well. After overnight attachment cells were stimulated with 10 ng/ml hBMP4 (Cat No. 314-BP-020; R&D Systems), 50 ng/ml hBMP2 (Cat No. 355-BM-010; R&D Systems), 200 ng/ml hBMP5 (Cat No. 615-BMC-020; R&D Systems), 50 ng/ml hBMP6 (Cat No. 506-BP-020; R&D Systems), 200 ng/ml hBMP7 (Cat No. 354-BP-010; R&D Systems), 25 ng/ml hBMP9 (Cat No. 3209-BP-010; R&D Systems), 25 ng/ml hBMP10 (Cat No. 2926-BP-025; R&D Systems), 50 ng/ml hBMP12 (Cat No. 779-G7-010; R&D Systems) and with or without VHH antibodies: C4C4 and C8C8 at 500 ng/ml; natural antagonist: mNoggin (Cat No. 1967-NG-025; R&D Systems), hNoggin (Cat No. 6057-NG; R&D Systems) and mGremlin (cat#956-GR-050; R&D Systems) at 500 ng/ml; chemical antagonist: 0.5 μM LDN-193189 (Cat No. 11802; Cayman Chemical) and 0.2 μM DMH1 (Cat No. 57146; Selleckchem).

[1] = tested on: patient-derived SMAD4 deficient tumors; conditions: FIG. 6 of Lombardo et al.; cited from earlier work
[2] = tested on: mouse intestinal organoids; experiment: Ex vivo mouse intestinal organoid culture (number and growth of organoids); type: cell-based; conditions: VHHs in place of Fc-Noggin, 5 days
Procedure: Finally, the VHHs were tested in an intestinal organoid culture system for their ability to neutralize the function of BMP4 ex vivo. Inhibition of BMP activity is one of the requirements to maintain Intestinal Stem Cells in vitro cultured as “organoids” that mimic crypt-villus structures and is usually provided by the addition of Noggin to the media. Murine small intestine organoids were cultured in the presence or absence of the VHH biheads and compared to Noggin. To precisely determine which BMPs are present in these cultures, BMP secretion was measured in the conditioned media of intestinal organoids grown without Noggin for three days. Whereas BMP2, BMP4 and BMP6 could be detected by ELISA (FIG. 14A), BMP5 levels were negative, most likely due to the low sensitivity of the ELISA assay (>250 pg/mL), and not due to the lack of BMP5 in these cultures. Indeed, analysis of the protein lysates of these organoids, detected the presence of BMP2, BMP4, BMP5 and BMP6 (FIG. 14B). Next, freshly isolated crypts from murine small intestines were cultured with the VHHs and tested for their ability to provide endogenous BMP inhibition and to sustain organoid cultures ex vivo. […]
Organoids were cultured as previously described (Sato et al., 2009). […] Crypts were counted and resuspended in matrigel. […]

Molecule	inhibition of BMP12 signals, comparison of inhibitors (BMP12)	growth of SMAD4 deficient tumors after treatment [1]	maintenance of organoid culture growth / stem cell proliferation [2]
B1	inhibited	generated tumors that grew faster instead of slower	–
B2	–	–	able to maintain culture growth of organoids

— patent US10280218B2, “Antibodies binding to BMP4, and uses thereof” (ACADEMISCH MEDISCH CENTRUM, priority 2014, dated 2019)
